Measured values taken from publication doi:10.1101/2022.11.03.515015.
“And” between values parts separate entries of the source, which are not always exact repeats. Equal values may be shown once.

Assays:
Conditions in all cases: remark: other sources report otherwise
[1] = molecular target: full-length human UBR5 (construct for single-particle analysis: 10xHis, 3C site, UBR5, double strep tag) (human) (UniProt O95071); assay: cryo-EM structure
[2] = molecular target: full-length human UBR5 (construct for single-particle analysis: 10xHis, 3C site, UBR5, double strep tag) (human) (UniProt O95071); assay: mass photometry
[3] = molecular target: full-length human UBR5 (construct for single-particle analysis: 10xHis, 3C site, UBR5, double strep tag) (human) (UniProt O95071); assay: mass photometry; remark: listed apart in the source

stoichiometry N [1]: 4 and 2
stoichiometry N [2]: 4
stoichiometry N [3]: 2
Substance: full-length human UBR5 (construct for single-particle analysis: 10xHis, 3C site, UBR5, double strep tag), O95071 1-2799
